US20240262905A1 (PANDION OPERATIONS, published 2024)

What was measured:
[1] = target: PD-1 on PD-1 reporter Jurkat cells (human, UniProt Q15116 25-288); assay: cell-based or functional assay
mouse PD-1 = target: T1, mouse PD-1 (mouse, UniProt Q02242 25-167, limits assumed); assay: no binding assay described; said in the vitiligo mouse model example
T1 sequence (looked up): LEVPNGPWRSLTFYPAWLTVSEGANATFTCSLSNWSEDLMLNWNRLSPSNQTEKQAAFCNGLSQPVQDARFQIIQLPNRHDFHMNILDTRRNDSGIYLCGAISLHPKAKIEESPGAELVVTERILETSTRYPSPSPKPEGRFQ

human DSG-3 = target: T2, human DSG-3 (human, UniProt P32926 50-615, limits assumed); assay: BLI (Octet), test article captured on anti-human Fc biosensors, human DSG-3 as analyte, 1:1 global fit
T2 construct: Soluble analyte (Octet) and plate coat (ELISA); also called hDSG-3
T2 sequence (looked up): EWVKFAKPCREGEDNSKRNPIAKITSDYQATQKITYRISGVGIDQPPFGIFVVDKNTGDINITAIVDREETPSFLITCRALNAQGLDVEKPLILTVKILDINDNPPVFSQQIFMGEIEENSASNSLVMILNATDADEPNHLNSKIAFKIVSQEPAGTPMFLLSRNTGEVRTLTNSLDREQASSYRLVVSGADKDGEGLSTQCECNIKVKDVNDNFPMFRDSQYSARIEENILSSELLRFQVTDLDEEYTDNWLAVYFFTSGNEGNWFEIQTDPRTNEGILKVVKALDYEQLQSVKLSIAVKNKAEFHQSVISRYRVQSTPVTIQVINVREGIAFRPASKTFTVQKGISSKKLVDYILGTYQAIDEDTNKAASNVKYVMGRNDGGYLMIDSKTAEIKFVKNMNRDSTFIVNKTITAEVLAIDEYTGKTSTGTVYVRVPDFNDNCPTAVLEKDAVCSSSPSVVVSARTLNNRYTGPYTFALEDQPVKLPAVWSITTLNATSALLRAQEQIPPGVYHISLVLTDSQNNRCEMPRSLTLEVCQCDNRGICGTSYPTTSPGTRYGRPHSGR
Experimental: Anti-human Fc biosensors were equilibrated in assay buffer (PBS, pH 7.4 with 1% BSA, and 0.05% Tween-20) for 30 minutes before the experiment was set-up. Test articles were diluted to 5 ug/mL in assay buffer. A two-fold, seven-point dilution of human DSG-3 (starting at 300 nM as the highest concentration) was made. Test articles were captured using anti-human Fc biosensors for 180 s. Biosensors loaded with test articles were equilibrated in assay buffer for 120 s; association was performed for 180 seconds and dissociation was performed for 300 s. Kinetic parameters (kon and kdis) and dissociation constant (KD) were calculated from a 1:1 global fit model using the data analysis software of the Octet96 RED software version 10.

PD-1 on PD-1 reporter Jurkat cells, sequence (Q15116 25-288): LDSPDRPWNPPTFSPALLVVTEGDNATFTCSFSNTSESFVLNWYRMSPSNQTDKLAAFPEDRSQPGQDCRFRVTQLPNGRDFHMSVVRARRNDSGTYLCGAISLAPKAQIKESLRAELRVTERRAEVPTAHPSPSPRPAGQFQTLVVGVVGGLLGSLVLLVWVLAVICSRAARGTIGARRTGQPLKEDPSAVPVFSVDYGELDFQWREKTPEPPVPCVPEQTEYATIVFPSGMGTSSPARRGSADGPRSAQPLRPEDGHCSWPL

SHP-2 recruitment in PD-1 reporter Jurkat cells (test article on anti-human IgG coated plate), EC50 at 2 hours [1]: 21.2 nM
SHP-2 recruitment in PD-1 reporter Jurkat cells (test article on anti-human IgG coated plate), EC50 at 24 hours [1]: 16.6 nM
binding result (mouse PD-1): no binding
Kd (human DSG-3): 29 nM
koff (human DSG-3): 0.000757 s⁻¹
B1: PD1DSGAB9 (bispecific antibody)
heavy: EVQLLESGGGLVQPGGSLRLSCAASGFTFSNSDMSWVRQAPGKGLEWVSGITISGGSTYYADSVKGRFTISRDNSKNTLYLQMNSLRAEDTAVYYCARGRGGSGWLDYWGQGTLVTVSSASTKGPSVFPLAPSSKSTSGGTAALGCLVKDYFPEPVTVSWNSGALTSGVHTFPAVLQSSGLYSLSSVVTVPSSSLGTQTYICNVNHKPSNTKVDKKVEPKSCDKTHTCPPCPAPEAAGAPSVFLFPPKPKDTLMISRTPEVTCVVVDVSHEDPEVKFNWYVDGVEVHNAKTKPREEQYNSTYRVVSVLTVLHQDWLNGKEYKCKVSNKALPAPIEKTISKAKGQPREPQVYTLPPSREEMTKNQVSLTCLVKGFYPSDIAVEWESNGQPENNYKTTPPVLDSDGSFFLYSKLTVDKSRWQQGNVFSCSVMHEALHNHYTQKSLSLSPGGGGGSGGGGSGGGGSQSVLTQPPSVSGTPGQRVTISCSGSSSHIGSNYVYWYQQLPGTAPKILIYSNDQRPAGVPDRFSASKSGTSASLAISGLRSEDEADYYCAAWDDGQGGVFGGGTKLTVLGGGGSGGGGSGGGGSGGGGSQVQLQESGPGPVKPSGTLSLTCGVSGGSISSNHWWTWVRQPPGKGLEWIGEIYHNGSTFLNPSLKSRVTISVDKSNNQFSLKLTSVTAADTAVYYCARGWHRTGFRGYPSHWYFDLWGRGTLVSVSS
light: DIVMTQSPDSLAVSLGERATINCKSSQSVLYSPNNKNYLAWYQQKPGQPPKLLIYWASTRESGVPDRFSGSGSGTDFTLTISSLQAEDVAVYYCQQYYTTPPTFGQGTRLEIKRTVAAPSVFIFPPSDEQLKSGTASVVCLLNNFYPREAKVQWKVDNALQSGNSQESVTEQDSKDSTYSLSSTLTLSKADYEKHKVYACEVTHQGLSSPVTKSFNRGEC
notes: also called PD1DS91; copies: 2 + 2
